Read-outs that look alike come from different tables or passages of the source.
How the values were obtained:
VEGFR-1 Fc chimera [1] = molecular target: T1, VEGFR-1 Fc chimera (UniProt P17948 27-758); test: SPR
VEGFR-1 Fc chimera [2] = molecular target: T1, VEGFR-1 Fc chimera; test: SPR; remark: listed apart in the source

T1 sequence (P17948 27-758, change not shown): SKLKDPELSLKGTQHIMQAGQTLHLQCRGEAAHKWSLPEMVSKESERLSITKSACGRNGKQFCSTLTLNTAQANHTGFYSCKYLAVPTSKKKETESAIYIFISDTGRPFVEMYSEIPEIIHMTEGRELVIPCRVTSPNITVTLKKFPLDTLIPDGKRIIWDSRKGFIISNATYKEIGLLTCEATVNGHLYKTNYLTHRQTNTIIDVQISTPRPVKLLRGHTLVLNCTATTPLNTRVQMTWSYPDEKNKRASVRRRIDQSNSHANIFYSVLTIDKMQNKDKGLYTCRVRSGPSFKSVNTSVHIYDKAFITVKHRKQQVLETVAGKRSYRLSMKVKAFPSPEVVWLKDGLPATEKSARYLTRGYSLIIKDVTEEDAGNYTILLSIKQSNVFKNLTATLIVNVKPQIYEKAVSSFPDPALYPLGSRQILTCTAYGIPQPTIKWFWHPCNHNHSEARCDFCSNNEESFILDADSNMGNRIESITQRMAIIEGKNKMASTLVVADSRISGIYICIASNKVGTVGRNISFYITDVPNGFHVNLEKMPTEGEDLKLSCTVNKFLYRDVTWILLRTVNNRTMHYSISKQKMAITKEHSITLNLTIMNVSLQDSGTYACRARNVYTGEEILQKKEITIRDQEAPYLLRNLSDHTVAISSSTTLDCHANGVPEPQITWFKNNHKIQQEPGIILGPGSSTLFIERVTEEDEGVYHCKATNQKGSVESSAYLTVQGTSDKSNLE

## GTCGTGTTTGTTGTTGTTTTCATTTTTGCGGCCC (structured_DNA) [Apt01]
VEGFR-1 Fc chimera [1]
  Kd: 3.3 nM

## GCTGATAGGATGGGTTGTAGGTCTAGGGGGGGGCC (structured_DNA) [Apt02]
VEGFR-1 Fc chimera [2]
  Kd: 1.5 nM

Reference: PMC7016029
